{"source": "patent JP2017086068A", "about": "(dated 2017)", "binders": {"B1": {"name": "FI6変異体2 (antibody, V domains shown)", "VH": "QVQLVQSGGGVVQPGRSLRLSCVASGFTFSTYAMHWVRQAPGRGLEWVAVISYDGNYKYYADSVKGRFSISRDNSNNTLHLEMNTLRTEDTALYYCAKDSQLRSLLYFEWLSQGYFDPWGQGTLVTVTS", "VL": "DIQMTQSPDSLAVSLGARATINCKSSQSVTFNYKNYLAWYQQKPGQPPKVLIYWASARESGVPDRFSGSGSGTDFTLTISSLQAEDVAVYYCQQHYRTPPTFGQGTKVEIK"}}, "molecular_target": "HA2融合ペプチドFGAIAG (Influenza A virus (A/VN/1194/04))", "assay": "Pepscan peptide mapping, linear and cyclised peptides of HA A/VN/1194/04"}
{"binder": "B1", "values": [{"measurement": "binding result", "result": "binds"}]}
